Reference: paper PMC10853514, “Autoinhibition and activation of myosin VI revealed by its cryo-EM structure” (Nature Communications, 2024)

How the values were obtained:
[1] = biological target: T1, calmodulin (CaM), light chain of myosin VI (UniProt P0DP23 1-149); assay: cryo-EM structure; single-particle cryo-EM of myosin VI/CaM in PB, TB + AMPPNP and PB + ATP, the three datasets combined; autoinhibited state, 3.54 Å (4.14 Å map with the SAH-E); conditions: both partners purified
T1 construct: calmodulin, the light chain of myosin VI; Two copies stand in the structure: CaM1 on Insert2 (with four Ca2+ ions) and CaM2 on the IQ motif; also called CaM1; CaM2; source: HEK293-F, co-transfected with myosin VI, co-purified

[2] = biological target: T2, myosin VI motor domain (MD), aa 1-789 (human, UniProt Q9UM54-1 1-789); assay: SEC; analytical SEC at 16 °C in PB (20 mM Na2HPO4/NaH2PO4 pH 7.4, 60 mM NaCl, 1 mM EGTA, 2 mM DTT, 2 mM MgCl2); 3.0 μM of the MD and CBD1 proteins; conditions: both partners purified
T2 construct: myosin VI, human, motor domain aa 1-789; The methods say that myosin VI or its mutants were co-transfected with CaM; also called the MD; source: HEK293-F (pCAG vector), purified

Row | binding result [1] | binding result [2] | Binder
1 | binds | – | human myosin VI heavy chain, full length, containing both the large-insertion (LI) and small-insertion (SI) regions (natural protein, myosin VI, human, full length with both the alternatively spliced LI and SI regions; codon-optimised synthetic gene; also called the heavy chain; source: HEK293-F, co-transfected with CaM, purified (Flag resin, size exclusion)) MEDGKPVWAPHPTDGFQMGNIVDIGPDSLTIEPLNQKGKTFLALINQVFPAEEDSKKDVEDNCSLMYLNEATLLHNIKVRYSKDRIYTYVANILIAVNPYFDIPKIYSSEAIKSYQGKSLGTRPPHVFAIADKAFRDMKVLKMSQSIIVSGESGAGKTENTKFVLRYLTESYGTGQDIDDRIVEANPLLEAFGNAKTVRNNNSSRFGKFVEIHFNEKSSVVGGFVSHYLLEKSRICVQGKEERNYHIFYRLCAGASEDIREKLHLSSPDNFRYLNRGCTRYFANKETDKQILQNRKSPEYLKAGSMKDPLLDDHGDFIRMCTAMKKIGLDDEEKLDLFRVVAGVLHLGNIDFEEAGSTSGGCNLKNKSAQSLEYCAELLGLDQDDLRVSLTTRVMLTTAGGTKGTVIKVPLKVEQANNARDALAKTVYSHLFDHVVNRVNQCFPFETSSYFIGVLDIAGFEYFEHNSFEQFCINYCNEKLQQFFNERILKEEQELYQKEGLGVNEVHYVDNQDCIDLIEAKLVGILDILDEENRLPQPSDQHFTSAVHQKHKDHFRLTIPRKSKLAVHRNIRDDEGFIIRHFAGAVCYETTQFVEKNNDALHMSLESLICESRDKFIRELFESSTNNNKDTKQKAGKLSFISVGNKFKTQLNLLLDKLRSTGASFIRCIKPNLKMTSHHFEGAQILSQLQCSGMVSVLDLMQGGYPSRASFHELYNMYKKYMPDKLARLDPRLFCKALFKALGLNENDYKFGLTKVFFRPGKFAEFDQIMKSDPDHLAELVKRVNHWLTCSRWKKVQWCSLSVIKLKNKIKYRAEACIKMQKTIRMWLCKRRHKPRIDGLVKVGTLKKRLDKFNEVVSVLKDGKPEMNKQIKNLEISIDTLMAKIKSTMMTQEQIQKEYDALVKSSEELLSALQKKKQQEEEAERLRRIQEEMEKERKRREEDEKRRRKEEEERRMKLEMEAKRKQEEEERKKREDDEKRIQAEVEAQLARQKEEESQQQAVLEQERRDRELALRIAQSEAELISDEAQADLALRRNDGTRPKMTPEQMAKEMSEFLSRGPAVLATKAAAGTKKYDLSKWKYAELRDTINTSCDIELLAACREEFHRRLKVYHAWKSKNKKRNTETEQRAPKSVTDYDFAPFLNNSPQQNPAAQIPARQREIEMNRQQRFFRIPFIRPADQYKDPQSKKKGWWYAHFDGPWIARQMELHPDKPPILLVAGKDDMEMCELNLEETGLTRKRGAEILPRQFEEIWERCGGIQYLQNAIESRQARPTYATAMLQSLLK
2 | – | binds | myosin VI cargo-binding domain 1 (CBD1), aa 1072-1158 (domain or fragment, human, UniProt Q9UM54-1 1072-1158, looked up, myosin VI, human, CBD1 aa 1072-1158, numbers of the form with LI and SI; also called the CBD1; source: E. coli BL21(DE3), purified (Ni-NTA, size exclusion)) TKKYDLSKWKYAELRDTINTSCDIELLAACREEFHRRLKVYHAWKSKNKKRNTETEQRAPKSVTDYDFAPFLNNSPQQNPAAQIPAR
